The target in data set [1] is Mucin 1 (MUC1) on MCF-7 cells; aptamer designed against the VNTR region (UniProt P15941). Put plainly: whole-cell capture on magnetic beads (fluorescence). The settings on record: multivalent (apparent), 5x10^4 DAPI-stained MCF-7 cells added to 500 uL A-f-M13-MB (resuspended in PBS), 30 min, 37 C, one-site fit over aptamer concentration.
Data set [2] shares this target. Put plainly: whole-cell fluorescence binding. Particulars: DBCO or NH2 at 5' (which version was used as free aptamer is not stated); 5x10^4 DAPI-stained MCF-7 cells added to 500 uL A-f-M13-MB (resuspended in PBS), 30 min, 37 C; one-site fit over aptamer concentration.

pKd: −log10 of the molar value.

Usually pKd stands for the Kd on a negative log10 scale, so that one unit is a factor of ten.

Chain of UniProt P15941 (P15941 whole entry): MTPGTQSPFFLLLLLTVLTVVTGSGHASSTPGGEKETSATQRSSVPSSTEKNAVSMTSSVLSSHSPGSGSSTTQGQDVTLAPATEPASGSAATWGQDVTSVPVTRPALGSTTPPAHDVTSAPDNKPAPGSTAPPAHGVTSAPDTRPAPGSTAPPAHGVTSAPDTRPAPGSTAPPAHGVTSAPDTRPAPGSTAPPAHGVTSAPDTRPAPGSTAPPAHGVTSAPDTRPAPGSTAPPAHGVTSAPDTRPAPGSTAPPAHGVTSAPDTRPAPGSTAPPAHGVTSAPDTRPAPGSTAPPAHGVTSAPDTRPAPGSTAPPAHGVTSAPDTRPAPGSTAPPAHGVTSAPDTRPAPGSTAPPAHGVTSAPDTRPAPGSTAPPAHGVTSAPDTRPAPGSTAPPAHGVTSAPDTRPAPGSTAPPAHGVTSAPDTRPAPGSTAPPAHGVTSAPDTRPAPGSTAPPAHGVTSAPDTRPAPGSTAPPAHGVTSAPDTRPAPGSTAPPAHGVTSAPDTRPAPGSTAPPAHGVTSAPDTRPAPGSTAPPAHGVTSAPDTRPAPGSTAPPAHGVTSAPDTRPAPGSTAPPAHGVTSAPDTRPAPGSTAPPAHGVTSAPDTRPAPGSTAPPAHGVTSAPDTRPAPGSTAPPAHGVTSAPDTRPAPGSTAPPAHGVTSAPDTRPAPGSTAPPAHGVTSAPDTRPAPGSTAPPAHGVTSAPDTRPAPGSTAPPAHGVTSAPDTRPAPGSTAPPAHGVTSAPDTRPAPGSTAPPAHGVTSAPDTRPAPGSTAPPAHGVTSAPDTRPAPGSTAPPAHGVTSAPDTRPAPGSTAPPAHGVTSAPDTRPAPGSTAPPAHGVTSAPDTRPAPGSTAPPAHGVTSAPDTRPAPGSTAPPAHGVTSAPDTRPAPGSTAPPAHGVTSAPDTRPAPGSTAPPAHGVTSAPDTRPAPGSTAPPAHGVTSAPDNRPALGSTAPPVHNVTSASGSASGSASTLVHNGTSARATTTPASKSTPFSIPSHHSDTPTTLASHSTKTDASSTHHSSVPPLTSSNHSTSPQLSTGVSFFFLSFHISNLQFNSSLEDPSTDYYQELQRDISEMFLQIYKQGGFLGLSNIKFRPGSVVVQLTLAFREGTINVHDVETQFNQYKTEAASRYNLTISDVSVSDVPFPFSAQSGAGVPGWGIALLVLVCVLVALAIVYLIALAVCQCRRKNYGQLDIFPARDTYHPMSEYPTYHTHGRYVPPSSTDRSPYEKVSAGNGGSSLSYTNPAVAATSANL

As for “TTTTTGCAGTTGATCCTTTGGATACCCTGG [NH2-Apt (S2.2) on magnetic beads]”, the negative logarithm of the Kd (pKd) in data set [1] (A-MB, 5' NH2, coupled to carboxyl magnetic beads) was 7.68.

With “TTTTTGCAGTTGATCCTTTGGATACCCTGG [DBCO-Apt (S2.2) clicked on M13 pVIII]”, the pKd in data set [1] (A-f-M13-MB, flexible phage, 5' DBCO, coupled to N3-PEG on M13 phage sidewall) was 11.96; in data set [1] (A-r-M13-MB, PFA-treated rigid phage, 5' DBCO, coupled to N3-PEG on M13 phage sidewall), 10.61. For “TTTTTGCAGTTGATCCTTTGGATACCCTGG [S2.2 aptamer, free (FAM-labelled)]”, the negative-log Kd (pKd) in data set [2] was 6.58.
